From patent publication US20240084027A1 (BEIJING MABWORKS, published 2024)
Where two headings read alike, the source gives them in different places.

Legend:
[1] = target: T1, human PD-L1 on HEK293A/human PD-L1 cells (human, UniProt Q9NZQ7 19-290); assay: FACS on HEK293A/human PD-L1 cells
Experimental: (§1) The bispecific antibodies as prepared above were tested for their binding capability to cell surface human, monkey and mouse CD40 proteins by FACS, using the HEK293A cells prepared in Example 1 that stably expressed human, monkey or mouse CD40. Briefly, a 96-well plate was seeded with 10⁵ HEK293A cells in 50 μl PBS, and then added with 100 μl serially diluted anti-CD40 antibody 714VH2VL2 and the bispecific antibodies of the disclosure (starting concentration at 40 μg/ml). After incubation at 4° C. for 1 h, the plate was washed by PBST for 3 times. The plate was added with 1:500 diluted APC-goat anti-mouse IgG (Cat #:405308, BioLegen, USA), incubated at 4° for 1 h, washed with PBS for 3 times, and subjected to fluorescence measurement in a FACS machine (BD).
(§2) Following the protocol of Example 4, the bispecific antibodies were tested for their binding capability to cell surface human, or monkey PD-L1 proteins by FACS, using the HEK293A cells prepared in Example 1 that stably expressed human or monkey […].

[2] = target: T1, human PD-L1 on HEK293A/human PD-L1 cells; assay: FACS on HEK293A/human PD-L1 cells; remark: listed apart in the source
Experimental: as §1
(§3) Following the protocols in Example 4 and Example 5, the bi- or multi-specific antibodies of the disclosure were tested for their binding capability to human PD-L1 and human CD40 proteins by FACS using the HEK293A cells prepared in Example 1 that stably expressed human PD-L1 or human CD40.

[3] = target: T1, human PD-L1 on HEK293A/human PD-L1 cells; assay: FACS on HEK293A/human PD-L1 cells; remark: listed apart in the source
Experimental: as §1, §3

[4] = target: T1, human PD-L1 on HEK293A/human PD-L1 cells; assay: FACS on HEK293A/human PD-L1 cells; remark: listed apart in the source
Experimental: as §1, §3

[5] = target: monkey PD-L1 on HEK293A/monkey PD-L1 cells (monkey, UniProt Q9NZQ7 19-290 (human entry)); assay: FACS on HEK293A/monkey PD-L1 cells
Chain of monkey PD-L1 on HEK293A/monkey PD-L1 cells (Q9NZQ7 other isoform, or with tags, fused parts or gaps limits assumed): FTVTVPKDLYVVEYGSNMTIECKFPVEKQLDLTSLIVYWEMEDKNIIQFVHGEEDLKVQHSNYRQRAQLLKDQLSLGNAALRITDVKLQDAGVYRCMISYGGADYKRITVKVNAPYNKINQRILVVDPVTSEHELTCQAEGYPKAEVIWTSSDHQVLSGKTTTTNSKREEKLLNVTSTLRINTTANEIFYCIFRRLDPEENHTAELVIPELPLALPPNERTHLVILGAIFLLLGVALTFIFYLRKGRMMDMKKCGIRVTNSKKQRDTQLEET
Experimental: as §1, §2

[6] = target: T1, human PD-L1 on HEK293A/human PD-L1 cells; assay: FACS blocking assay on HEK293A/human PD-L1 cells; blocked ligand PD-1-Fc
Experimental: (§4) The bispecific antibodies were tested for their blocking activity on PD-1-PD-L1 binding by FACS using the HEK293A cells stably expressing human PD-L1 molecules as prepared in Example 1. Briefly, a 96-well plate was seeded with 10⁵ HEK293A/human PD-L1 cells in 100 μl cell culture medium, and then added with 50 μl serially diluted anti-PD-L1 antibody 56E5VH5VL4 or MBS307-3 molecules. After incubation at 4° C. for 1 h. the plate was washed with PBST for 3 times, added with 100 μl 200 μg/ml PD-1-Fc fusion proteins (Cat #:10377-10211, Sino Biological, CN), incubated at 4° C. for 1 h, washed with PBST for 3 times, and added with 1:500 diluted PE-goat anti-human IgG (Cat #:PAI-86078, Thermofisher, USA). After incubation at 4° C. for 1 h, the plate was washed with PBST for 3 times and measured for fluorescence using a FACS machine (BD).

[7] = target: T1, human PD-L1 on HEK293A/human PD-L1 cells; assay: as above; remark: listed apart in the source
Experimental: as §4
(§5) Following the protocol of Example 7, the bi- or multi-specific antibodies were tested for their capability to block PD-1-PD-L1 binding by FACS, using the HEK293A cells prepared in Example 1 that stably expressed human PD-L1 molecules.

[8] = target: T1, human PD-L1 on HEK293A/human PD-L1 cells; assay: as above; remark: listed apart in the source
Experimental: as §4, §5

[9] = target: T2, mouse CD40 on HEK293A cells (mouse, UniProt P27512 20-289); assay: FACS on HEK293A cells expressing mouse CD40
T2 sequence: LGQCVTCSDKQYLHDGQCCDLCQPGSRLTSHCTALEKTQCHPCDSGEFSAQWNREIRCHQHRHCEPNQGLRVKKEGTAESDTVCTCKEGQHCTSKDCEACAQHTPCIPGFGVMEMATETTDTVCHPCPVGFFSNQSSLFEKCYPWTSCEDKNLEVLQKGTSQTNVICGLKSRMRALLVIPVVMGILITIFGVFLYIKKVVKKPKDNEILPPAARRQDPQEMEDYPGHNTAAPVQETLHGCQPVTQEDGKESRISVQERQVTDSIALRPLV
Experimental: as §1

[10] = target: T3, human CD40 on HEK293A/human CD40 cells (human, UniProt P25942 21-277); assay: FACS on HEK293A/human CD40 cells
T3 construct: also called HEK-Blue/CD40 cells
Experimental: as §1

[11] = target: T4, monkey CD40 on HEK293A/monkey CD40 cells (monkey, UniProt P25942 21-277 (human entry)); assay: FACS on HEK293A/monkey CD40 cells
T4 chain: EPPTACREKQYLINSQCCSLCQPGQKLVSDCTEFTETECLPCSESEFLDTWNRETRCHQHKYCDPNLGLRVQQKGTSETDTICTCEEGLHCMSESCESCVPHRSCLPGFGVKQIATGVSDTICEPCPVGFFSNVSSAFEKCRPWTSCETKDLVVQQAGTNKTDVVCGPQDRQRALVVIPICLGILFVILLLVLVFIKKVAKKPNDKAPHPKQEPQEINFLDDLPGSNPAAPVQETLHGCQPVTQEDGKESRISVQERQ
Experimental: as §1

T1 sequence (Q9NZQ7 19-290 limits assumed): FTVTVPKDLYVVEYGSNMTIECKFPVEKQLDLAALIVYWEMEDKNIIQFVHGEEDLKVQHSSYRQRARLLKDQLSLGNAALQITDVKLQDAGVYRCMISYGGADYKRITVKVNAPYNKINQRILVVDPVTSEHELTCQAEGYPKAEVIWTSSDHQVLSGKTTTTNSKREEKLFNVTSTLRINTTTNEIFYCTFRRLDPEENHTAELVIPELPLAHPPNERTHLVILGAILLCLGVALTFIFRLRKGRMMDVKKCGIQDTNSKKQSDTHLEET

B1: anti-PD-L1 antibody 56E5VH5VL4 (antibody, V domains shown)
VH: QVQLQESGPGLVKPSQTLSLTCTVSGGSITSDYWNWIRQHPGNKLEYMGYISYTGSTYYNPSLKSRISITRDTSKNQFSLKLSSVTTADTAVYYCARYRDWDVRAMDYWGQGTTVTVSS
VL: DIVMTQSPDSLAVSLGEKVTMNCKSSQSLLISGNQKNFLTWYQQKPGQPPKLLIYWASTRESGVPDRFSGSGSGTDFTLTISSLQAEDLAVYYCQNDFGFPFTFGQGTKVEIK
notes: also called the monospecific anti-PD-L1 antibody; 56E5VH5CL4 [sic]
- EC50 (read off the curve) [1]: ~0.07 µg/mL
- EC50 (read off the curve) [2]: ~0.04 µg/mL
- EC50 (read off the curve) [3]: ~0.04 µg/mL
- EC50 (read off the curve) [4]: ~0.05 µg/mL
- EC50 (read off the curve) [5]: ~0.04 µg/mL
- IC50 (read off the curve) [6]: ~0.06 µg/mL
- IC50 (read off the curve) [7]: ~0.06 µg/mL
- IC50 (read off the curve) [8]: ~0.02 µg/mL

B2: MBS307-1 (bispecific antibody, human IgG1, kappa, L234A L235A)
heavy 1: QVQLQESGPGLVKPSDTLSLTCAVSGYSITTNYYWNWIRQPPGKGLEWMGYIKYDGSNNYNPSLKNRITISVDTSKNQFSLKLSSVTAVDTAVYYCARLDYWGQGTLVTVSSASTKGPSVFPLAPSSKSTSGGTAALGCLVKDYFPEPVTVSWNSGALTSGVHTFPAVLQSSGLYSLSSVVTVPSSSLGTQTYICNVNHKPSNTKVDKKVEPKSCDKTHTCPPCPAPEAAGGPSVFLFPPKPKDTLMISRTPEVTCVVVDVSHEDPEVKFNWYVDGVEVHNAKTKPREEQYNSTYRVVSVLTVLHQDWLNGKEYKCKVSNKALPAPIEKTISKAKGQPREPQVYTLPPSREEMTKNQVSLWCLVKGFYPSDIAVEWESNGQPENNYKTTPPVLDSDGSFFLYSKLTVDKSRWQQGNVFSCSVMHEALHNHYTQKSLSLSPGGGGSGGGGSGGGGSGGGGSGIPPHVQKSVNNDMIVTDNNGAVKFPQLCKFCDVRFSTCDNQKSCMSNCSITSICEKPQEVCVAVWRKNDENITLETVCHDPKLPYHDFILEDAASPKCIMKEKKKPGETFFMCSCSSDECNDNIIFSEEYNTSNPD
light 1: DVVLTQSPLSLPVTLGQPASISCRSSQSLENSNGNTFLNWFQQRPGQSPRLLIYKVSNRFSGVPDRFSGSGSGTDFTLKISRVEAEDVGVYYCLQVTHVPFTFGQGTKLEIKRTVAAPSVFIFPPSDEQLKSGTASVVCLLNNFYPREAKVQWKVDNALQSGNSQESVTEQDSKDSTYSLSSTLTLSKADYEKHKVYACEVTHQGLSSPVTKSFNRGEC
heavy 2: QVQLQESGPGLVKPSQTLSLTCTVSGGSITSDYWNWIRQHPGNKLEYMGYISYTGSTYYNPSLKSRISITRDTSKNQFSLKLSSVTTADTAVYYCARYRDWDVRAMDYWGQGTTVTVSSASTKGPSVFPLAPSSKSTSGGTAALGCLVKDYFPEPVTVSWNSGALTSGVHTFPAVLQSSGLYSLSSVVTVPSSSLGTQTYICNVNHKPSNTKVDKKVEPKSCDKTHTCPPCPAPEAAGGPSVFLFPPKPKDTLMISRTPEVTCVVVDVSHEDPEVKFNWYVDGVEVHNAKTKPREEQYNSTYRVVSVLTVLHQDWLNGKEYKCKVSNKALPAPIEKTISKAKGQPREPQVYTLPPSREEMTKNQVSLSCAVKGFYPSDIAVEWESNGQPENNYKTTPPVLDSDGSFFLVSKLTVDKSRWQQGNVFSCSVMHEALHNHYTQKSLSLSPGGGGSGGGGSGGGGSGGGGSGIPPHVQKSVNNDMIVTDNNGAVKFPQLCKFCDVRFSTCDNQKSCMSNCSITSICEKPQEVCVAVWRKNDENITLETVCHDPKLPYHDFILEDAASPKCIMKEKKKPGETFFMCSCSSDECNDNIIFSEEYNTSNPD
light 2: not shown
notes: Both long chains carry linker 1-TGFBII at the C terminus; also called asymmetrical anti-CD40/PD-L1 antibody MBS307-1; MBS307-1-1 + MBS307-1-2
- binding result [9]: no binding (tested: starting concentration at 40 µg/ml)
- EC50 (read off the curve) [10]: ~0.2 µg/mL
- EC50 (read off the curve) [11]: ~0.2 µg/mL
- EC50 (read off the curve) [1]: ~0.3 µg/mL
- binding result [5]: binds

B3: MBS307-2 (bispecific antibody, human IgG1, kappa, L234A L235A)
heavy: QVQLQESGPGLVKPSQTLSLTCTVSGGSITSDYWNWIRQHPGNKLEYMGYISYTGSTYYNPSLKSRISITRDTSKNQFSLKLSSVTTADTAVYYCARYRDWDVRAMDYWGQGTTVTVSSASTKGPSVFPLAPSSKSTSGGTAALGCLVKDYFPEPVTVSWNSGALTSGVHTFPAVLQSSGLYSLSSVVTVPSSSLGTQTYICNVNHKPSNTKVDKKVEPKSCDKTHTCPPCPAPEAAGGPSVFLFPPKPKDTLMISRTPEVTCVVVDVSHEDPEVKFNWYVDGVEVHNAKTKPREEQYNSTYRVVSVLTVLHQDWLNGKEYKCKVSNKALGAPIEKTISKAKGQPREPQVYTLPPSREEMTKNQVSLTCLVKGFYPSDIAVEWESNGQPENNYKTTPPVLDSDGSFFLYSKLTVDKSRWQQGNVFSCSVMHEALHNHYTQKSLSLSPGSGGGGSGGGGSQVQLQESGPGLVKPSDTLSLTCAVSGYSITTNYYWNWIRQPPGKGLEWMGYIKYDGSNNYNPSLKNRITISVDTSKNQFSLKLSSVTAVDTAVYYCARLDYWGQGTLVTVSSGGGGSGGGGSGGGGSGGGSDVVLTQSPLSLPVTLGQPASISCRSSQSLENSNGNTFLNWFQQRPGQSPRLLIYKVSNRFSGVPDRFSGSGSGTDFTLKISRVEAEDVGVYYCLQVTHVPFTFGQGTKLEIK
light: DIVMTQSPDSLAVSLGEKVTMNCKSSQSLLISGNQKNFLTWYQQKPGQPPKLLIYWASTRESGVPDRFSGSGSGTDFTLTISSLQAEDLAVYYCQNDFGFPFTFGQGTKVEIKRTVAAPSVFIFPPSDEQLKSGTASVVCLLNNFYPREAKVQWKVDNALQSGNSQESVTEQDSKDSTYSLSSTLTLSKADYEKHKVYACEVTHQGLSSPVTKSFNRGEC
notes: Symmetric: full-length anti-PD-L1 antibody (56E5VH5VL4) with an anti-CD40 scFv at the C terminus of each heavy chain
- binding result [9]: no binding (tested: starting concentration at 40 µg/ml)
- binding result [10]: binds
- binding result [11]: binds
- EC50 (read off the curve) [1]: ~0.1 µg/mL
- EC50 (read off the curve) [5]: ~0.04 µg/mL
